Measured values from publication PMC3212078, “Atomic Force Microscopy Study of Protein–Protein Interactions in the Cytochrome CYP11A1 (P450scc)-Containing Steroid Hydroxylase System” (Nanoscale Research Letters, 2010).

Tests used:
[1] = target: T1, cytochrome CYP11A1 (P450scc) (bovine, UniProt P00189 40-520); experiment: SPR; Biacore 3000; about 400 RU Ad coupled by EDC/NHS to a CM5 chip; monomeric (Emulgen 913-monomerized) CYP11A1 injected at 1-100 nM; 50 mM potassium phosphate pH 7.4 with 1% Emulgen 913; 1:1 Langmuir model; conditions: both partners purified
T1 construct: The same protein was used either untreated (oligomeric, non-monomerized) or after incubation with 4-12% Emulgen 913 (monomerized); the assays tell the two states apart; also called CYP11A1mon; monomerized CYP11A1; source: isolated from bovine adrenal glands
T1 sequence (looked up): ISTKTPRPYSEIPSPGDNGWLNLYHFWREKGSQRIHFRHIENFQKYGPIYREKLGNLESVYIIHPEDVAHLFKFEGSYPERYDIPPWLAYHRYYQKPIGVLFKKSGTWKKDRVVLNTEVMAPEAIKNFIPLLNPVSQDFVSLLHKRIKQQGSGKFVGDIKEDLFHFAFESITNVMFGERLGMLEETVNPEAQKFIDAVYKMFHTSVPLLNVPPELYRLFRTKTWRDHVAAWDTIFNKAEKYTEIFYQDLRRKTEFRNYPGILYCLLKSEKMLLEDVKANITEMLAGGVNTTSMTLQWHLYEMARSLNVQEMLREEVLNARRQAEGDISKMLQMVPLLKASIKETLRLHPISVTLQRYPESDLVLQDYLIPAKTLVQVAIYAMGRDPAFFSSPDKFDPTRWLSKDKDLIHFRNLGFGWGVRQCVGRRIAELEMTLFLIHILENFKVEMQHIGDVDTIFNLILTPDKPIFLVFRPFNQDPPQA

[2] = target: T1, cytochrome CYP11A1 (P450scc); experiment: SPR; Biacore 3000; about 400 RU Ad coupled by EDC/NHS to a CM5 chip; oligomeric (non-monomerized) CYP11A1 injected at 1-100 nM; 50 mM potassium phosphate pH 7.4 with 1% Emulgen 913; 1:1 Langmuir model; conditions: both partners purified

Kd [1]: 170 ± 15 nM | koff [1]: 0.05 ± 0.005 s⁻¹ | kon [1]: 290000 M⁻¹ s⁻¹ | Kd [2]: 210 ± 20 nM | koff [2]: 0.09 ± 0.009 s⁻¹ | kon [2]: 420000 M⁻¹ s⁻¹
B1: adrenodoxin (natural protein, UniProt P00257 59-186, looked up)
chain: SSSEDKITVHFINRDGETLTTKGKIGDSLLDVVVQNNLDIDGFGACEGTLACSTCHLIFEQHIFEKLEAITDEENDMLDLAYGLTDRSRLGCQICLTKAMDNMTVRVPDAVSDARESIDMGMNSSKIE
notes: adrenodoxin (Ad), recombinant; source: E. coli BL21DE3, purified after sonification
